# Test results from US20240116997A1 (BRIGHT PEAK THERAPEUTICS, published 2024).
# Positions count from the first letter of the chain named. Numbers in names are those of the source.
# T1: IL-18 receptor (IL-18Rαβ) on cells (UniProt Q13478 19-541; O95256 20-599, limits assumed)
# T1 sequence (looked up) 1: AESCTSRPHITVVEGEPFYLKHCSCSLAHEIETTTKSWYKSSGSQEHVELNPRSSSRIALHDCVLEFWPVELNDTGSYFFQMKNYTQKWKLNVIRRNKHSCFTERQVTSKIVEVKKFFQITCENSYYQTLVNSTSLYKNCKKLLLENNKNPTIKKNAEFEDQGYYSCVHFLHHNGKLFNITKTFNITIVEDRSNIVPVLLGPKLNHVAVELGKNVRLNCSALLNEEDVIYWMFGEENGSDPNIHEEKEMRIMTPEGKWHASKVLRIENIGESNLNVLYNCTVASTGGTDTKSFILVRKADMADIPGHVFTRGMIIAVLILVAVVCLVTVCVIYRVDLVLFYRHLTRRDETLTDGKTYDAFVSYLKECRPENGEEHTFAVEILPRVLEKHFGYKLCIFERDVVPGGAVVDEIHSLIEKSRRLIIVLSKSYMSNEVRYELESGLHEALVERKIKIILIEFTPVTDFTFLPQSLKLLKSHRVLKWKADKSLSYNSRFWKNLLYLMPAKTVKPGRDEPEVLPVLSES
# T1 sequence (looked up) 2: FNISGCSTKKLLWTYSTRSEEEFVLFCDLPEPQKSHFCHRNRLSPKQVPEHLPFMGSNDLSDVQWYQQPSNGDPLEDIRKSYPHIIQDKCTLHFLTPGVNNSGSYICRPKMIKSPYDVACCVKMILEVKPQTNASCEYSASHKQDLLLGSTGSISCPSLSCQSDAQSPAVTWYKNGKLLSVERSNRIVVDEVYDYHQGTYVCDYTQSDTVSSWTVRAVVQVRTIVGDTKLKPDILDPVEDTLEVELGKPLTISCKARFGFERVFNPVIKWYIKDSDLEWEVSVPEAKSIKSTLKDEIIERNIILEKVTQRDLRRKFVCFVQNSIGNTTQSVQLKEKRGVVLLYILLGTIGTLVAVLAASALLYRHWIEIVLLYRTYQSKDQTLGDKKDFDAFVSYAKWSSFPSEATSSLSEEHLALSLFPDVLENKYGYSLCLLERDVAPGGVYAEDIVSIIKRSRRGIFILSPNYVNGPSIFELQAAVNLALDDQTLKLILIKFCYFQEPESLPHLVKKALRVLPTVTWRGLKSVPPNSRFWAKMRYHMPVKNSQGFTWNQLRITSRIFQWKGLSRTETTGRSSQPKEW
# B1: C127 (Propeptide-LinkerX-C086; SEQ ID NO: 69) (ligand)
# chain: MAAEPVEDNCINFVAMKFIDNTLYFIAEDDENLESDSGGPGPAGMKGLPGSYFGKLKSKLSIIRNLNDQVLFIDQGNRPLFEDMTDSDARDNAPRTIFIISMYADSQPRGMAVAISVKCEKISTLSAENKIISFKEMNPPDNIKDTKSDIIFFQRSVPGHDNKMQFESSSYEGYFLAAEKERDLFKLILKKEDELGDRSIMFTVQNED
# B2: C136 (C086-GGSGG-IL-18Rα D3-His6, non-cleavable control; SEQ ID NO: 77) (ligand)
# chain: YFGKLKSKLSIIRNLNDQVLFIDQGNRPLFEDMTDSDARDNAPRTIFIISMYADSQPRGMAVAISVKCEKISTLSAENKIISFKEMNPPDNIKDTKSDIIFFQRSVPGHDNKMQFESSSYEGYFLAAEKERDLFKLILKKEDELGDRSIMFTVQNEGGSGGSNIVPVLLGPKLNHVAVELGKNVRLNCSALLNEEDVIYWMFGEENGSDPNIHEEKEMRIMTPEGKWHASKVLRIENIGESNLNVLYNCTVASTGGTDTKSFILVRKADHHHHHH
# B3: C137 (C086-GGGGSGGGGSGGGG-IL-18Rα D3-His6, non-cleavable control; SEQ ID NO: 78) (ligand)
# chain: YFGKLKSKLSIIRNLNDQVLFIDQGNRPLFEDMTDSDARDNAPRTIFIISMYADSQPRGMAVAISVKCEKISTLSAENKIISFKEMNPPDNIKDTKSDIIFFQRSVPGHDNKMQFESSSYEGYFLAAEKERDLFKLILKKEDELGDRSIMFTVQNEGGGGSGGGGSGGGGSNIVPVLLGPKLNHVAVELGKNVRLNCSALLNEEDVIYWMFGEENGSDPNIHEEKEMRIMTPEGKWHASKVLRIENIGESNLNVLYNCTVASTGGTDTKSFILVRKADHHHHHH
# B4: C185 (Propeptide-PLG-C086; SEQ ID NO: 70) (ligand)
# chain: MAAEPVEDNCINFVAMKFIDNTLYFIAEDDENLESDPLGYFGKLKSKLSIIRNLNDQVLFIDQGNRPLFEDMTDSDARDNAPRTIFIISMYADSQPRGMAVAISVKCEKISTLSAENKIISFKEMNPPDNIKDTKSDIIFFQRSVPGHDNKMQFESSSYEGYFLAAEKERDLFKLILKKEDELGDRSIMFTVQNED
# B5: C187 (Propeptide-PLGLAG-C086; SEQ ID NO: 72) (ligand)
# chain: MAAEPVEDNCINFVAMKFIDNTLYFIAEDDENLESDPLGLAGYFGKLKSKLSIIRNLNDQVLFIDQGNRPLFEDMTDSDARDNAPRTIFIISMYADSQPRGMAVAISVKCEKISTLSAENKIISFKEMNPPDNIKDTKSDIIFFQRSVPGHDNKMQFESSSYEGYFLAAEKERDLFKLILKKEDELGDRSIMFTVQNED
# B6: C190 (Propeptide-C086, non-cleavable control; SEQ ID NO: 68) (ligand)
# chain: MAAEPVEDNCINFVAMKFIDNTLYFIAEDDENLESDYFGKLKSKLSIIRNLNDQVLFIDQGNRPLFEDMTDSDARDNAPRTIFIISMYADSQPRGMAVAISVKCEKISTLSAENKIISFKEMNPPDNIKDTKSDIIFFQRSVPGHDNKMQFESSSYEGYFLAAEKERDLFKLILKKEDELGDRSIMFTVQNED
# B7: C190 + MMP9 (ligand)
# chain: B6 chain
# B8: C148 (F2A, V11I, C38A, K53A, C76A, C127A) (ligand)
# chain: YAGKLESKLSIIRNLNDQVLFIDQGNRPLFEDMTDSDARDNAPRTIFIISMYADSQPRGMAVTISVKCEKISTLSAENKIISFKEMNPPDNIKDTKSDIIFFQRSVPGHDNKMQFESSSYEGYFLAAEKERDLFKLILKKEDELGDRSIMFTVQNED
# B9: C168 (V11I, C38A, C76A, S105K, C127A) (ligand)
# chain: B8 chain with A2F, A53K, S105K
# B10: C163 (V11I, C38A, C76A, Q103K, C127A) (ligand)
# chain: B8 chain with A2F, A53K, Q103K
# B11: C153 (V11I, D37A, C38A, K53A, C76A, C127A) (ligand)
# chain: B8 chain with A2F, D37A
# B12: C150 (V11I, T34A, C38A, K53A, C76A, C127A) (ligand)
# chain: B8 chain with A2F, T34A
# B13: C151 (V11I, D35A, C38A, K53A, C76A, C127A) (ligand)
# chain: B8 chain with A2F, D35A
# B14: C152 (V11I, S36A, C38A, K53A, C76A, C127A) (ligand)
# chain: B8 chain with A2F, S36A
# B15: C155 (V11I, C38A, D40A, K53A, C76A, C127A) (ligand)
# chain: B8 chain with A2F, D40A
# B16: C161 (K8R, V11I, C38A, C76A, Q103E, C127A) (ligand)
# chain: B8 chain with A2F, K8R, A53K, Q103E
# B17: C167 (V11I, C38A, C76A, S105I, C127A) (ligand)
# chain: B8 chain with A2F, A53K, S105I
# B18: C164 (V11I, C38A, S55H, C76A, C127A) (ligand)
# chain: B8 chain with A2F, A53K, S55H
# B19: C165 (V11I, C38A, S55R, C76A, C127A) (ligand)
# chain: B8 chain with A2F, A53K, S55R
# B20: C166 (V11I, C38A, S55T, C76A, C127A) (ligand)
# chain: B8 chain with A2F, A53K, S55T
# B21: C158 (V11I, C38A, K53A, C76A, G108A, C127A) (ligand)
# chain: B8 chain with A2F, G108A
# B22: C154 (V11I, E31A, D37A, C38A, K53A, C76A, C127A) (ligand)
# chain: B8 chain with A2F, E31A, D37A
# B23: C162 (K8E, V11I, C38A, C76A, Q103R, C127A) (ligand)
# chain: B8 chain with A2F, K8E, A53K, Q103R
# B24: C157 (V11I, C38A, K53A, C76A, C127A, D132A) (ligand)
# chain: B8 chain with A2F, D132A
# B25: C160 (V11I, C38A, K53A, C76A, D110A, C127A) (ligand)
# chain: B8 chain with A2F, D110A
# B26: IL-18 polypeptide SEQ ID NO: 34 (E06K, K53A, S55A) (ligand)
# chain: B8 chain with A2F, E6K, I11V, A38C, S55A, A76C, A127C
# B27: C159 (V11I, C38A, K53A, C76A, H109A, C127A) (ligand)
# chain: B8 chain with A2F, H109A
# B28: C156 (V11I, C38A, N41A, K53A, C76A, C127A) (ligand)
# chain: B8 chain with A2F, N41A
# B29: C149 (V11I, E31A, C38A, K53A, C76A, C127A) (ligand)
# chain: B8 chain with A2F, E31A
# Target: T1, IL-18 receptor (IL-18Rαβ) on cells
# Test: cell-based or functional assay
Fold potency loss vs C086,HEK-blue EC50,Binder
7000 fold,295 nM,B1
21 fold,0.884 nM,B2
49 fold,2.08 nM,B3
60900 fold,2560 nM,B4
29400 fold,1240 nM,B5
–,404 nM,B6
–,198 nM,B7

# Target: T1, IL-18 receptor (IL-18Rαβ) on cells
# Test: cell-based or functional assay
# Remark: another data set of the same source
row,"EC50 (pM), HEK-Blue IL-18R reporter assay",Binder
1,7.28 pM,B8
2,7.73 pM,B9
3,1.5 pM,B10
4,14.1 pM,B11
5,0.7 pM,B12
6,13.1 pM,B13
7,0.25 pM,B14
8,0.52 pM,B15
9,2.01 pM,B16
10,5.37 pM,B17
11,3.14 pM,B18
12,1.91 pM,B19
13,4.73 pM,B20
14,15.6 pM,B21
15,11.9 pM,B22
16,2.3 pM,B23
17,1.95 pM,B24
18,2.02 pM,B25
19,272 pM,B26
20,19.5 pM,B27
21,11.7 pM,B28
22,6.6 pM,B29

# Target: T1, IL-18 receptor (IL-18Rαβ) on cells
# Test: cell-based or functional assay
# Remark: another data set of the same source
row,"EC50 (nM), IFNγ induction, NK-92 cells",Binder
1,0.187 nM,B8
2,1.37 nM,B9
3,0.414 nM,B10
4,0.062 nM,B11
5,0.061 nM,B12
6,0.033 nM,B13
7,0.175 nM,B14
8,0.558 nM,B15
9,0.061 nM,B16
10,0.098 nM,B17
11,0.176 nM,B18
12,0.098 nM,B19
13,0.103 nM,B20
14,0.123 nM,B21
15,0.067 nM,B22
16,0.093 nM,B23
17,0.073 nM,B24
18,0.057 nM,B25
19,0.824 nM,B26
20,0.028 nM,B27
21,0.056 nM,B28
22,0.015 nM,B29
